Measured values reported in US9573987B2 (priority 2011, dated 2017).
Like-named read-outs stand apart in the source and are kept apart here. Where a SMILES comes first, the peptide text is derived from it. Side-chain parts run from the residue outwards. [ ]: non-standard residue; d: D form. Phe(4-NH2) = Nc1ccc(C[C@H](N)C(=O)O)cc1; Sar = CNCC(=O)O

How the values were obtained:
insulin receptor = conditions: background statement; cited from earlier work
[1] = target: T1, insulin subtype A receptor (IR-A) (Homo sapiens, UniProt P06213); test: Insulin subtype A receptor phosphorylation, receptor transfected HEK293 cells; type: cell-based
T1 construct: expressed in transfected cells; host or cells: HEK293
Procedure: (§1) Color development was stopped 5 min later by adding 0.05 ml 1 N HCl. Absorbance at 450 nm was measured on Titertek Multiscan MCC340 (ThermoFisher, Pittsburgh, Pa.). […]

[2] = system: human mammary epithelial cells (HMEC); test: Human mammary epithelial cells proliferation ([14C]-thymidine); type: cell-based; conditions: Table 15; read-out: Proliferation HMEC EC50
Procedure: The plate was incubated 4 h at 37° C., 5% CO2 and 90% humidity.

IGF-1 receptor [3] = target: T2, IGF-1 receptor (Homo sapiens, UniProt P08069); test: IGF-1 receptor phosphorylation assay, receptor transfected HEK293 cells; type: cell-based; set-up: expressed in transfected cells; host or cells: HEK293; conditions: Table 15; read-out: Receptor Phosphorylation IGF-IR EC50
Procedure: Color development was stopped 5 min later by adding 0.05 ml 1 N HCl. Absorbance at 450 nm was measured on Titertek Multiscan MCC340 (ThermoFisher, Pittsburgh, Pa.).

[4] = target: T3, insulin subtype B receptor (IR-B) (Homo sapiens, UniProt P06213); test: Insulin subtype B receptor phosphorylation, receptor transfected HEK293 cells; type: cell-based; set-up: expressed in transfected cells; host or cells: HEK293
Procedure: as §1

IGF-1 receptor [5] = target: T2, IGF-1 receptor; test: IGF-1 receptor binding assay (competition, scintillation proximity); set-up: expressed in transfected cells; plasma membrane fragments; conditions: Table 15; read-out: Receptor Binding IGR-1R EC50
[6] = target: T3, insulin subtype B receptor (IR-B); test: Insulin subtype B receptor binding (competition binding); set-up: expressed in transfected cells; plasma membrane fragments; conditions: Table 15
blood glucose = test: Comparative insulin tolerance test / insulin dose titration in mice
[7] = Table 15, read-out: Receptor Phosphorylation IR-A- EC50
[8] = read-out: EC50 values (in nM), phosphorylation at the insulin subtype A receptor, experiment of FIG. 18A
[9] = Table 15, read-out: Receptor Phosphorylation IR-B EC50
[10] = read-out: EC50 values (in nM), phosphorylation at the insulin subtype B receptor, experiment of FIG. 18B

| Molecule | Half Life (hr) 20% Plasma/PBS [h] | potency relative to native insulin (insulin receptor) | EC50 [1, 7] [nM] | EC50 [1, 8] [nM] | EC50 [2] [nM] | EC50 (IGF-1 receptor [3]) [nM] | EC50 [4, 9] [nM] | EC50 [4, 10] [nM] | EC50 (IGF-1 receptor [5]) [nM] | EC50 [6] [nM] | in vitro phosphorylation activity at the insulin subtype A receptor (result in words) ([1]; FIGS. 21, 23) | IC50 ([1]; read-out: Phosphorylation at Insulin Receptor Subtype A (IC50), Table 16A) [nM] | IC50 ([4]; read-out: Phosphorylation at Insulin Receptor Subtype B (IC50), Table 16B) [nM] | blood glucose lowering in insulin tolerance test (result in words) (blood glucose) |
| --- | --- | --- | --- | --- | --- | --- | --- | --- | --- | --- | --- | --- | --- | --- |
| CC[C@H](C)[C@H](NC(=O)CN)C(=O)N[C@H](C(=O)N[C@@H](CC(=O)O)C(=O)N[C@@H](CCC(=O)O)C(=O)N[C@@H](C)C(=O)N[C@@H](C)C(=O)N[C@@H](Cc1ccccc1)C(=O)N[C@@H](CCCNC(=N)N)C(=O)N[C@@H](CO)C(=O)N[C@@H](C)C(=O)N[C@@H](CC(=O)O)C(=O)N[C@@H](CC(C)C)C(=O)N[C@@H](CCCNC(=N)N)C(=O)N[C@@H](CCCNC(=N)N)C(=O)N[C@@H](CC(C)C)C(=O)N[C@@H](CCC(=O)O)C(=O)N[C@@H](CCSC)C(=O)N[C@@H](Cc1ccc(NC(=O)CN(C)C(=O)[C@@H](N)CCCCN)cc1)C(=O)N[C@@H](C)C(=O)N[C@@H](C)C(N)=O)C(C)C [K Sar] (H-GIVDEAAFRSADLRRLEM[Phe(4-NH2)]([Sar-Lys])AA-NH2) | 5.9 | – | – | – | – | – | – | – | – | – | – | – | – | – |
| proinsulin: larger linear precursor of insulin with 35-residue connecting peptide | – | 2% to 9% | – | – | – | – | – | – | – | – | – | – | – | – |
| DP22LysC: DP22 cleaved at the lysine of CTP to produce a two chain insulin (protein) chain 1: APPPSLPSPSRLPGPSDTPILPQEEEEERGPEHLCGAHLVDALYLVCGDRGFYSSSSRAPPPSLPSPSRLPGPSDTPILPQK chain 2: GIVDECCHRSCDLRRLENYCN | – | – | 0.385 | 0.39 ± 0.06 | 29.7 | 23 | 1.41 | 1.88 ± 0.52 | 58.8 | 3.71 | – | – | – | – |
| GEEEEEKGPEHLCGAHLVDALYLVCGDRGFYSSSSRAPPPSLPSPSRLPGPSD TPILPQKGIVDECCHRSCDLRRLENYCN (protein, listed as Homo sapiens) GEEEEEKGPEHLCGAHLVDALYLVCGDRGFYSSSSRAPPPSLPSPSRLPGPSDTPILPQKGIVDECCHRSCDLRRLENYCN | – | – | – | 0.8 ± 0.2 | 146 | 379 | 4.83 | 10.6 ± 5.06 | 36.9 | 5.44 | nearly equivalent to native hormone | 3.12 | 1.05 | potent insulin receptor agonists |
| DP22: CTP-E5R-B chain-CTP(K)-A Chain (SEQ ID NO: 91) (protein, single chain insulin analog) MGSSSSKAPPPSLPSPSRLPGPSDTPILPQEEEEERGPEHLCGAHLVDALYLVCGDRGFYSSSSRAPPPSLPSPSRLPGPSDTPILPQKGIVDECCHRSCDLRRLENYCN | – | – | 1.25 | 0.97 ± 0.17 | 431 | 269 | 11.3 | 18.3 ± 10.3 | 438 | 16.4 | – | – | – | – |
